This passage reports Ki results from article PMC5929103.

What all share (experiment): enzyme inhibition kinetics
Experiment [1] addresses human cationic trypsin, active (human).
The target in experiment [2] is human anionic trypsin, active (human) (UniProt P07478).
Experiment [3] deals with human mesotrypsin, active (human) (UniProt P35030).
Sequence of UniProt P35030 (P35030 81-304): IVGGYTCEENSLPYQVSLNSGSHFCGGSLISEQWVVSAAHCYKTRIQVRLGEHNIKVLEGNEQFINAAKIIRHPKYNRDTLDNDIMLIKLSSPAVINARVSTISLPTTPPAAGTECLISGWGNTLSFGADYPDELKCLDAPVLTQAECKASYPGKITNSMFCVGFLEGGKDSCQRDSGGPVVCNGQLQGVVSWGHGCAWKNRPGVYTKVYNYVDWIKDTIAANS

Sequence of UniProt P07478 (P07478 24-247): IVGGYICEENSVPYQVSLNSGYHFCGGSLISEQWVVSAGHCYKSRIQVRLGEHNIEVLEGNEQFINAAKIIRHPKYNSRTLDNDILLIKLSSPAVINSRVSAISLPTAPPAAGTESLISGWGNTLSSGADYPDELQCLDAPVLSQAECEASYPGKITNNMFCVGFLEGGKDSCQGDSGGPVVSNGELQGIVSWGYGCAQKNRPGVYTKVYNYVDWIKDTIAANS

“APPI_(M17G/I18F/F34V), soluble form (designed binder)” registered a Ki in experiment [1] of 23 pM.

For the substance “APPI_(P13W/M17G/I18F/F34V), soluble form (designed binder)”, the Ki in experiment [2] was 3.8 pM; in experiment [1], 19 pM; in experiment [3], 69 pM. With “wild-type amyloid β-protein precursor Kunitz protease inhibitor domain (APPI) (from UniProt P05067 289-344) (domain or fragment)”, the Ki in experiment [1] is 4.1 pM.

A word on the Ki: it is a measure of affinity in units of concentration, obtained from inhibition or displacement. Low values mean a stronger hold on the target, high ones a looser hold on the target.
